The values below come from patent US20180021429A1, “ANTICANCER AGENTS OR ANTIMETASTATIC AGENTS USING FSTL1 AND COMBINATION DRUG THEREOF” (PHARMA FOODS INTERNATIONAL CO., LTD., priority 2015, published 2018).

The experiment has as its system human pancreatic cancer cell line Panc1. The experiment in a line: Inhibitory activity against activation of tumor cell by FSTL1, RANKL-/CCR2-positive cells (Examples 5, 7, 9-11). It is filed as cell-based. As to the method: It is known that tumor cells activated by stimulation with FSTL1 highly express molecule groups promoting bone metastasis and increase metastatic invasive capacity (Cancer Research 73: 6185, 2013). Thus, […] cells/well of a human pancreatic cancer cell line Panc1 were suspended in 1 mL/well of D-MEM medium (GIBCO/Thermo Fisher Scientific Inc. Cat. No. C11885500BT) containing 10% fetal bovine serum, supplemented with 50 ng/mL (final concentration) of FSTL1 (R&D Systems, Inc.) and 10 μg/mL of the anti-FSTL1 antibody (#5-2, #5-8, #5-10, #5-43, #6-55, or #7-34) or its isotype mouse IgG (anti-DNP antibody) as a control antibody “Control”, and cultured under stimulation (6-well plate). 3 days thereafter, the number of cells was counted while the cells were stained with a PE-labeled anti-RANKL antibody (eBioscience Cat. No. 12-6619) and a PE-labeled anti-CCR2 antibody (R&D Systems, Inc. Cat. No. FAB151P) in order to examine the expression of markers indicating bone metastatic properties, and the contents of RANKL-positive cells and CCR2-positive cells were analyzed by flow cytometry using FACScan (Becton, Dickinson and Company) to calculate the numbers of cells per culture. […] Therefore, in Examples below, judgment was made with the number of cells as an index.
In the same way as in Example 5, a human pancreatic cancer cell line Panc1 was supplemented with 50 ng/mL (final concentration) of FSTL1 (R&D Systems, Inc.) and 10 μg/mL of the anti-FSTL1 antibody (the same clones as in Example 6) or a control antibody and cultured under stimulation.
3 days thereafter, the number of cells was counted while the cells were stained with a PE-labeled anti-RANKL antibody and a PE-labeled anti-CCR2 antibody, and the contents of RANKL-positive cells and CCR2-positive cells were analyzed by flow cytometry using FACScan (Becton, Dickinson and Company) to calculate the numbers of cells per culture (FIG. 5B).
(§1) In the same way as in Example 5, a human pancreatic cancer cell line Panc1 was supplemented with 20 ng/mL (final concentration) of FSTL1 and 10 μg/mL of the anti-FSTL1 antibody (#5-2, #5-8, or #6-55) or a control antibody and cultured under stimulation. 3 days thereafter, the number of cells was counted while the cells were stained with a PE-labeled anti-RANKL antibody and a PE-labeled anti-CCR2 antibody, and the contents of RANKL-positive cells and CCR2-positive cells were analyzed by flow cytometry using FACScan (Becton, Dickinson and Company) to calculate the numbers of cells per culture (FIG. 6B).
as §1, with “50” for “20”, “#5-3, #6-55, #7-34, #8-1, #8-4, #8-7,” for “#5-8,”, “#8-8)” for “#6-55)”, “culture.” for “culture (FIG. 6B).”
In the same way as in Example 5, a human pancreatic cancer cell line Panc1 was supplemented with 50 ng/mL (final concentration) of FSTL1 and 10 μg/mL of the anti-FSTL1 antibody (#6-55) or a control antibody and cultured under stimulation. 3 days thereafter, the number of cells was counted while the cells were stained with a PE-labeled anti-RANKL antibody and a PE-labeled anti-CCR2 antibody, and the contents of RANKL-positive cells and CCR2-positive cells were analyzed by flow cytometry using FACScan (Becton, Dickinson and Company) to calculate the numbers of cells per culture.
It is known that tumor cells activated by stimulation with FSTL1 highly express molecule groups promoting bone metastasis and increase metastatic invasive capacity (Cancer Research 73: 6185, 2013). […]

Where [1] appears, read: Example 7, FIG. 5B/35B, FSTL1 50 ng/mL, antibody 10 μg/mL, 3 days.
Where [2] appears, read: Example 9, FIG. 6B/36B, FSTL1 20 ng/mL, antibody 10 μg/mL, 3 days.
The mark [3] stands for this setting: Example 10, FIG. 6C/36C, FSTL1 50 ng/mL, antibody 10 μg/mL, 3 days.

“Also recorded” adds a separate entry of the source.

B1: #5-3: chicken-mouse chimeric anti-FSTL1 antibody clone; variable regions SEQ ID NO: 767 (light), 769 (heavy) (antibody, V domains shown)
VH: AVTLDESGGGLQTPGGALSLVCKGSGFSFSSFNMFWVRQAPGKGLEWVAGIGKDGVPKYGAAVDGRATISKDNGQSTMRLQLNNLRAEDTGTYFCAKAAGGCSYDWCGIYAGDIDTWGHGTEVIVSS
VL: ASTQPSSVSANPGETVKITCSGGSGYYYGWYQQKSPGSVPVTVIYNNNNRPSDIPSRFSGSKSGSTGTLTITGVRAEDEAVYYCGGYDNSGTGIFGAGTTLTVL
modifications: mouse constant regions
On to B1, for which the “inhibitory activity against the expansion of RANKL-positive cells and CCR2-positive cells” value (shortened to “inhibitory activity”) under setting [1] is recorded as “higher inhibitory activity”.

B2: #5-8: chicken-mouse chimeric anti-FSTL1 antibody clone; variable regions SEQ ID NO: 771 (light), 773 (heavy) (antibody, V domains shown)
VH: AVTLDESGGGLQTPGGGLSLVCKGSGFTFSSFNMFWVRQAPGKGLEWVAGIGKDGVPKYGTAVDGRATISKDNGQSTMRLQLNNLRAEDTGTYFCAKAAGGCSYDWCGIYTGDIDTWGHGTEVIVSS
VL: ASTQPSSVSANPGEAVKITCSGGSGSYYGWYQQKSPGSAPVTVIYNNNQRPSDIPSRFSGSKSGSTATLTITGVQAEDEAVYFCGGYDSSTGHGGIFGAGTTLTVL
modifications: mouse constant regions
As to B2, the “inhibitory activity” value was “higher inhibitory activity” under setting [1]; “exhibited inhibitory activity against the expansion of RANKL-positive cells and CCR2-positive cells; also recorded: higher inhibitory activity” under setting [2].

B3: #8-7: chicken-mouse chimeric anti-FSTL1 antibody clone; variable regions SEQ ID NO: 799 (light), 801 (heavy) (antibody, V domains shown)
VH: AVTLDESGGGLQTPGGGLSLVCKGSGFTFSSFNMFWVRQAPGKGLEWVAGIGKDGVPKYGAAVDGRATISKDNGQSTLRLQLNNLRAEDTGTYFCAKAAGGCSYDWCGIYAGDIDTWGHGTEVIVSS
VL: ASTQPSSVSANPGEAVKITCSGGSGSYYGWYQQKSPGSAPVTVIYNNNQRPSDIPSRFSGSKSGSTATLTITGVQAEDEAVYFCGGYDSSTGHGGIFGAGTTLTVL
modifications: mouse constant regions
With B3, the “inhibitory activity” value under setting [3] is listed as “high inhibitory activity; also recorded: higher inhibitory activity”.

B4: #8-4: chicken-mouse chimeric anti-FSTL1 antibody clone; variable regions SEQ ID NO: 795 (light), 797 (heavy) (antibody, V domains shown)
VH: AVTLDESGGGLQTPGGGLSLVCKGSGFTLSSFNMFWVRQAPGKGLEWVAGVGKDGGTAYGAAVDGRATISRDSGQSTVRLQLNNLRAEDTGTYFCAKAAGGCSYSWCGAYVGDLDAWGHGTEVIVSS
VL: ASSQPSSVSANPGETVKITCSGGSGYYYGWYQQKSPGSAPVTVIYNNDNKPSDIPSRFSGSKSGSTGTLTITGVQVEDEAVYFCGGYDNSGTGIFGAGTTLTVL
modifications: mouse constant regions
Turning to B4, the “inhibitory activity” value under setting [3] is “high inhibitory activity; also recorded: higher inhibitory activity”.

B5: #6-55: chicken-mouse chimeric anti-FSTL1 antibody clone; variable regions SEQ ID NO: 783 (light), 785 (heavy) (antibody, V domains shown)
VH: AVTLDESGGGLQTPGGALSLVCKGSGFTFTSVTMQWVRQAPGKGLEWVASVCSGSSTYYAPAVKGRATISRDNGQSTVRLQLSNLRPEDTGTYYCAKIAGRARWSCTSAAYNIDAWGHGTEVIVSS
VL: ASTQPSSVSAIPGETVKITCSGGGNNYGWYQQRSPGSAPVTVIYYNDNRPSNIPSRFSGSTSGSTSTLTITGVQADDEAIYYCGSWDSNTDSGIFGAGTTLTVL
modifications: mouse constant regions
B5: the “inhibitory activity” value is “exhibited inhibitory activity against the expansion of RANKL-positive cells and CCR2-positive cells; also recorded: higher inhibitory activity” under setting [2]; “high inhibitory activity; also recorded: higher inhibitory activity” under setting [3]; ~100% (Example 11, FIG. 6D/36D, FSTL1 50 ng/mL, at all tested doses 5, 10 and 20 μg/mL). Besides, the “dose dependence of the antibody” value (Example 11, FIG. 6D/36D, 5, 10, 20 μg/mL) is reported as “the dose dependence of antibody was not confirmed; also recorded: the dose dependence of the antibody was not confirmed”. In addition, the “inhibition of cell induction of RANKL-positive cells and CCR2-positive cells” value (Example 11, FIG. 6D/36D, dose dependence test) is “exhibited inhibitory activity; also recorded: strongly inhibited the cell induction of both RANKL-positive cells and CCR2-positive cells at the same time”.

B6: #5-2: chicken-mouse chimeric anti-FSTL1 antibody clone; variable regions SEQ ID NO: 763 (light), 765 (heavy) (antibody, V domains shown)
VH: AVTLDESGGGLQTPGGGLSLVCKGSGFTFSSFNMFWVRQAPGKGLEWVAGVGKDGGTGYGAAVDGRATISKDNGQSTLRLQLNNLRAEDTGTYYCAKAAGGCSYGWCGSYVGDIDAWGHGTEVIVSS
VL: ASTQPSSVSANPGEAVKITCSGGSGSYYGWYQQKSPGSAPVTVIYNNNQRPSDIPSRFSGSKSGSTATLTITGVQAEDEAVYFCGGYDSSTGHGGIFGAGTTLTVL
modifications: mouse constant regions
Regarding B6, the “inhibitory activity” value under setting [3] is “high inhibitory activity; also recorded: higher inhibitory activity”.
